Fold of coimmunoprecipitated preSSu against wild-type atToc159, Km and kcat data for 4 molecules are collected here from PMC2557045.

Where a chain is given by its changes, count along the chain named. Numbers in names are those of the source.

Broadly, the Km is the substrate concentration at which the rate is half of its maximum. For orientation: kcat means the number of substrate molecules converted per active site and unit of time at saturation.

Data set [1] has as its target atToc159-A864R (expressed from CaMV35S::atTOC159-A864R in ppi2 plants, A864R:ppi2) (Arabidopsis thaliana) (UniProt O81283). In words: cross-linking.
Substrate in data set [2]: Nc1nc2c(ncn2[C@@H]2O[C@H](COP(=O)(O)OP(=O)(O)OP(=O)(O)O)[C@@H](O)[C@H]2O)c(=O)[nH]1
In words: GTP hydrolysis assay, purified soluble G-domain. Type of data set: biochemical, Arabidopsis thaliana.

Substrate in data set [3]: Nc1nc2c(ncn2[C@@H]2O[C@H](COP(=O)(O)OP(=O)(O)OP(=O)(O)O)[C@@H](O)[C@H]2O)c(=O)[nH]1
In words: GTP hydrolysis assay, immunoprecipitated protein on Sepharose beads. Particulars: antibody/protein A-Sepharose-bound receptor. Type of data set: biochemical, Arabidopsis thaliana.

For “preSSu ([35S]-labeled chloroplast preprotein) (natural protein)”, in data set [1], the fold of coimmunoprecipitated preSSu against wild-type atToc159 is 3 fold.

B1: atToc159 G-domain (atToc159G) (Arabidopsis thaliana) (protein)
chain: IFSLNILVLGKAGVGKSATINSILGNQIASIDAFGLSTTSVREISGTVNGVKITFIDTPGLKSAAMDQSTNAKMLSSVKKVMKKCPPDIVLYVDRLDTQTRDLNNLPLLRTITASLGTSIWKNAIVTLTHAASAPPDGPSGTPLSYDVFVAQCSHIVQQSIGQAVGDLRLMNPSLMNPVSLVENHPLCRKNREGVKVLPNGQTWRSQLLLLCYSLKVLSETNSLLRPQEPLDHRK
Take B1: in data set [2], the Km is 9.0 ± 1.35 µM and the kcat came to 0.000317 ± 2.5e-05 s⁻¹.

B2: atToc159 (full-length) (Arabidopsis thaliana) (protein)
chain: MDSKSVTPEPTNPFYASSGQSGKTYASVVAAAAAAAADKEDGGAVSSAKELDSSSEAVSGNSDKVGADDLSDSEKEKPNLVGDGKVSDEVDGSLKEDSTTPEATPKPEVVSGETIGVDDVSSLSPKPEAVSDGVGVVEENKKVKEDVEDIKDDGESKIENGSVDVDVKQASTDGESESKVKDVEEEDVGTKKDDEGESELGGKVDVDDKSDNVIEEEGVELTDKGDVIVNSSPVESVHVDVAKPGVVVVGDAEGSEELKINADAETLEVANKFDQIGDDDSGEFEPVSDKAIEEVEEKFTSESDSIADSSKLESVDTSAVEPEVVAAESGSEPKDVEKANGLEKGMTYAEVIKAASAVADNGTKEEESVLGGIVDDAEEGVKLNNKGDFVVDSSAIEAVNVDVAKPGVVVVGDVEVSEVLETDGNIPDVHNKFDPIGQGEGGEVELESDKATEEGGGKLVSEGDSMVDSSVVDSVDADINVAEPGVVVVGAAKEAVIKEDDKDDEVDKTISNIEEPDDLTAAYDGNFELAVKEISEAAKVEPDEPKVGVEVEELPVSESLKVGSVDAEEDSIPAAESQFEVRKVVEGDSAEEDENKLPVEDIVSSREFSFGGKEVDQEPSGEGVTRVDGSESEEETEEMIFGSSEAAKQFLAELEKASSGIEAHSDEANISNNMSDRIDGQIVTDSDEDVDTEDEGEEKMFDTAALAALLKAATGGGSSEGGNFTITSQDGTKLFSMDRPAGLSSSLRPLKPAAAPRANRSNIFSNSNVTMADETEINLSEEEKQKLEKLQSLRVKFLRLLQRLGHSAEDSIAAQVLYRLALLAGRQAGQLFSLDAAKKKAVESEAEGNEELIFSLNILVLGKAGVGKSATINSILGNQIASIDAFGLSTTSVREISGTVNGVKITFIDTPGLKSAAMDQSTNAKMLSSVKKVMKKCPPDIVLYVDRLDTQTRDLNNLPLLRTITASLGTSIWKNAIVTLTHAASAPPDGPSGTPLSYDVFVAQCSHIVQQSIGQAVGDLRLMNPSLMNPVSLVENHPLCRKNREGVKVLPNGQTWRSQLLLLCYSLKVLSETNSLLRPQEPLDHRKVFGFRVRSPPLPYLLSWLLQSRAHPKLPGDQGGDSVDSDIEIDDVSDSEQEDGEDDEYDQLPPFKPLRKTQLAKLSNEQRKAYFEEYDYRVKLLQKKQWREELKRMKEMKKNGKKLGESEFGYPGEEDDPENGAPAAVPVPLPDMVLPPSFDSDNSAYRYRYLEPTSQLLTRPVLDTHGWDHDCGYDGVNAEHSLALASRFPATATVQVTKDKKEFNIHLDSSVSAKHGENGSTMAGFDIQNVGKQLAYVVRGETKFKNLRKNKTTVGGSVTFLGENIATGVKLEDQIALGKRLVLVGSTGTMRSQGDSAYGANLEVRLREADFPIGQDQSSFGLSLVKWRGDLALGANLQSQVSVGRNSKIALRAGLNNKMSGQITVRTSSSDQLQIALTAILPIAMSIYKSIRPEATNDKYSMY
With B2, in data set [3], the Km amounted to 3.2 ± 0.34 µM and the kcat came to 0.000233 ± 3.67e-05 s⁻¹.

B3: atToc159 (full-length) (Arabidopsis thaliana; A864R) (protein)
chain: B2 chain with A864R
For B3, in data set [3], the Michaelis constant (Km) is 1.9 ± 0.30 µM and the kcat is 7e-05 ± 1.7e-06 s⁻¹.
